This is an account of results in patent US20140349871A1 (University of Washington, published 2014).

In the test the target is T1, prohibitin-2 (PHB2) (human, UniProt Q99623 2-299).
T1 construct: whole, on cells; also called BAP37
The experiment in a line: in vivo PIR (BDP-NHP) cross-linking of intact HeLa cells, ReACT LC-MS3.

T1 sequence (Q99623 2-299): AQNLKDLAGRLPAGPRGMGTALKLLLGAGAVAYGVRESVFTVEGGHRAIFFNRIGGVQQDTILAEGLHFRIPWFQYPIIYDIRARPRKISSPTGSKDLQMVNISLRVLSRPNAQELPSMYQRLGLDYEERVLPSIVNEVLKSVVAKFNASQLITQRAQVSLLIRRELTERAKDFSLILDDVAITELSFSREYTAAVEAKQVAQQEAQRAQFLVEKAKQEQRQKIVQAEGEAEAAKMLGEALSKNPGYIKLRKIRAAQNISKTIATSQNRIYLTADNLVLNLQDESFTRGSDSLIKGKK

B1: prohibitin (PHB) (other, human, UniProt P35232 2-272, looked up)
chain: AAKVFESIGKFGLALAVAGGVVNSALYNVDAGHRAVIFDRFRGVQDIVVGEGTHFLIPWVQKPIIFDCRSRPRNVPVITGSKDLQNVNITLRILFRPVASQLPRIFTSIGEDYDERVLPSITTEILKSVVARFDAGELITQRELVSRQVSDDLTERAATFGLILDDVSLTHLTFGKEFTEAVEAKQVAQQEAERARFVVEKAEQQKKAAIISAEGDSKAAELIANSLATAGDGLIELRKLEAAEDIAYQLSRSRNITYLPAGQSVLLQLPQ
notes: whole, on cells; also called prohibitin 1; BAP32
For B1, the binding result was “binds”.
